Data as given in PMC10812501, “Repurposing Glutathione Transferases: Directed Evolution Combined with Chemical Modification for the Creation of a Semisynthetic Enzyme with High Hydroperoxidase Activity” (Antioxidants, 2023).
Numbering of substitutions follows the chain as printed. Numbers in names are those of the source.

Legend:
[1] = substrate: CC(C)(OO)c1ccccc1; experiment: steady-state kinetics, coupled glutathione reductase/NADPH hydroperoxidase assay; format: biochemical, Glycine max; conditions: GSH 1.0 mM fixed, sodium phosphate 50 mM pH 7.0, 1 mM EDTA
Text: steady-state kinetics, coupled glutathione reductase/NADPH hydroperoxidase assay on GmGSTU4-4

[2] = substrate: CC(C)(OO)c1ccccc1; experiment: as above; format: biochemical, Glycine max; conditions: Sh14 shuffled variant, GSH 1.0 mM fixed, sodium phosphate 50 mM pH 7.0, 1 mM EDTA

B1: GmGSTU4-4 (Glycine max) (protein)
chain: MSDEVVLLDFWPSPFGMRVRIALAEKGIKYEYKEEDLRNKSPLLLQMNPVHKKIPVLIHNGKPICESLIAVQYIEEVWNDRNPLLPSDPYQRAQTRFWADYVDKKIYDLGRKIWTSKGEEKEAAKKEFIEALKLLEEQLGDKTYFGGDNLGFVDIALVPFYTWFKAYETFGTLNIESECPKFIAWAKRCLQKESVAKSLPDQQKVYEFIMDLRKKLGIE
notes: dimer; Sh14 = shuffled variant differing by four point changes (R38Q/Q46K/W114C/I183V)
Protein B1 has a Km [1] of 454.3 ± 83.6 µM and a kcat [1] of 0.178 ± 0.0167 s⁻¹.

B2: GmGSTU4-4 (Glycine max; I183V/Q46K/R38Q/W114C) (protein)
chain: B1 chain with R38Q, Q46K, W114C, I183V
notes: as for B1
B2 was tested, and the Km [2] was 255.8 ± 46.4 µM and the kcat [2] was 0.593 ± 0.0617 s⁻¹.
